Measurements as given in paper PMC10692205, “Pyroptosis inhibiting nanobodies block Gasdermin D pore formation” (Nature Communications, 2023).
Each block holds one binder with its values, some of them ahead of it.

Key:
[1] = biological target: T1, human wild-type, full length Gasdermin D (GSDMD 1-484), chemically biotinylated (Homo sapiens (Human)., UniProt P57764, chemically biotinylated (ChromaLink Biotin), approximately 2 biotins per molecule); test: SPR; Biacore 8K; chemically biotinylated full length GSDMD captured on Series S Sensor Chip CAP; nanobodies injected as analytes, multi-cycle kinetics (VHH-1, -2, -3, -5: 0.5-32 nM; VHH-4, -6: 64-4096 nM); 25 °C; 20 mM HEPES pH 8.0, 200 mM NaCl, 5 mM DTT, 0.05% Tween20; flow 30 µl/min; association 120 s, dissociation 300 s; 1:1 binding model; settings: both partners purified
T1 construct: human Gasdermin D (GSDMD), wild type, full length, residues 1-484; also called human GSDMD wt, f.l; hGSDMD; source: E. coli Rosetta (DE3), purified (Ni-NTA, SUMO cleavage by ULP1, second Ni-NTA, SEC S200); chemically biotinylated (ChromaLink Biotin Labeling kit); not shown: His6-SUMO, N-terminal, cleaved

[2] = biological target: T2, human wild-type, full length Gasdermin D (GSDMD) 1-484 (Homo sapiens (Human)., UniProt P57764); test: cell-based or functional assay
[3] = biological target: T3, GSDMD_(Δ184-194/Δ247-272) (human, UniProt P57764, Δ184-194 | Δ247-272); test: SEC-MALS; GSDMD_(Δ184-194/Δ247-272) mixed with VHH GSDMD-2, VHH GSDMD-6 or both at equimolar concentrations (189 µM); Superose 6 10/300 GL in GSDMD-SEC buffer; settings: both partners purified
T3 construct: human Gasdermin D 1-484 with residues 184-194 (in the NTD) and 247-272 (linker between the domains) deleted; also called GSDMD crystallization construct; source: E. coli Rosetta (DE3), purified (Ni-NTA, ULP1 cleavage, second Ni-NTA, SEC); not shown: His6, N-terminal, cleaved; SUMO, N-terminal, cleaved

[4] = biological target: T4, chemically biotinylated full length human Gasdermin D (GSDMD) (human, UniProt P57764 1-484, chemically biotinylated (ChromaLink Biotin), approximately 2 biotins per molecule; sites not stated); test: SPR
T4 chain: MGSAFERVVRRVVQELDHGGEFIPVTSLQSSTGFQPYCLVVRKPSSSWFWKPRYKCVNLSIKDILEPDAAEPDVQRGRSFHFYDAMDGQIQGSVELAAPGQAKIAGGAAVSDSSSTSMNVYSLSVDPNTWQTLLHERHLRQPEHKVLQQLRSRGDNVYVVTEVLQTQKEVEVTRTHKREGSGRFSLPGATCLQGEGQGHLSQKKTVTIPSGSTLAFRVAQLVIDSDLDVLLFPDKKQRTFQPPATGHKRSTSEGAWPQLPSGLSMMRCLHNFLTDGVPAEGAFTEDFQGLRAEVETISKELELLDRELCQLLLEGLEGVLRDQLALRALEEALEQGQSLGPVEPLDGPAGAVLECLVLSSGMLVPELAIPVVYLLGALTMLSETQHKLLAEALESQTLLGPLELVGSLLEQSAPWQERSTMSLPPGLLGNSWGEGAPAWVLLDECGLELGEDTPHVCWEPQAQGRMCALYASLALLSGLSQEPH

[5] = biological target: T2, human wild-type, full length Gasdermin …; test: nanoDSF thermal shift; nanobodies titrated to GSDMD (5 µM) in increasing concentrations; heated 20 to 90 °C at 1.5 °C/min; fluorescence at 330 and 350 nm; settings: both partners purified
[6] = biological target: human wild-type, full length Gasdermin D (GSDMD 1-484), chemically biotinylated (human) (UniProt P57764); test: SPR; Biacore 8K; chemically biotinylated full length GSDMD captured on Series S Sensor Chip CAP; nanobodies injected as analytes, multi-cycle kinetics (VHH-1, -2, -3, -5: 0.5-32 nM; VHH-4, -6: 64-4096 nM); 25 °C; 20 mM HEPES pH 8.0, 200 mM NaCl, 5 mM DTT, 0.05% Tween20; flow 30 µl/min; association 120 s, dissociation 300 s; 1:1 binding model
[7] = biological target: T5, chemically biotinylated full length human Gasdermin D (GSDMD) (Homo sapiens (Human)., UniProt P57764, chemically biotinylated (ChromaLink Biotin), approximately 2 biotins per molecule; sites not stated); test: SPR; chemically biotinylated GSDMD captured on a Series S Sensor Chip CAP (biotin capture kit); nanobodies injected as analytes, multi-cycle kinetics, 120 s association, 300 s dissociation, 1:1 binding model; 25 °C; 20 mM HEPES pH 8.0, 200 mM NaCl, 5 mM DTT, 0.05% Tween20; settings: both partners purified
T5 construct: human Gasdermin D, wild-type, full length, residues 1-484; also called chemically biotinylated GSDMD; not shown: His6, N-terminal, cleaved; SUMO, N-terminal, cleaved

Kd [1]: 143 nM
koff [1]: 0.0201 s⁻¹
kon [1]: 141000 M⁻¹ s⁻¹
B1: VHH_(GSDMD-6) (VHH)
VHH: QVQLVETGGGLVQPGGSLRLSCTASGFIFSANQMNWVRQAPGKGLEWLSGISTRGDTTSYADSVKGRFTISRDNAKNTLYLQMNSLQPDDTAVYFCARVCIRGPEPKLRCDDWGQGTQVTVSS
notes: also called VHH-6; source: E. coli WK6, periplasmic expression (pHEN6), purified (Ni-NTA, SEC S75)

IC50 of calcein release through GSDMD pores in the liposome leakage assay (nanobody 10 nM to 10 µM, 0.5 µM full length GSDMD, caspase-4, 180 min); what is blocked: formation of functional GSDMD pores [2]: 1.3 µM
stoichiometry N [3]: 1
B2: VHH_(GSDMD-6) (VHH)
VHH: B1 VHH
notes: CDR3 of 15 residues with an additional disulfide C100-C110; also called VHH_(GSDMD-6)-HA-His; source: E. coli WK6, periplasmic expression (pHEN6), purified (Ni-NTA, gel filtration); not shown: HA, C-terminal, kept; His tag, C-terminal, kept

Kd [4]: 559 nM
binding result [5]: binds
koff [6]: 0.00161 s⁻¹
kon [6]: 2890 M⁻¹ s⁻¹
B3: VHH_(GSDMD-4) (VHH)
VHH: QVQLVESGGGLVQPGGSLRLSCAASGFTLDRHAIAWFRQAPGLEREGVVCTSSSGAITNTADSVKGRFTISRDDAKNTVYLQMNSLKPEDTAIYYCAVRELWTVQPICEPRPRAYAYWGQGTQVTVSS
notes: source: E. coli WK6, periplasmic expression (pHEN6), purified (Ni-NTA, gel filtration)

Kd [1]: 0.494 nM
koff [1]: 0.00149 s⁻¹
kon [1]: 3.02e+06 M⁻¹ s⁻¹
B8: VHH_(GSDMD-5) (VHH)
VHH: QVQLVETGGGLVQPGGSLRLSCAASGFVFSINPMNWYRQAPGKERELVAYISMRGSTTNYADSVKGRFIISRDNAKNTLYLQMNSLKPEDTAVYYCNAPSRSVWGQGTQVTVSS
notes: also called VHH-5; source: E. coli WK6, periplasmic expression (pHEN6), purified (Ni-NTA, SEC S75)

Kd [7]: 0.49 nM
B9: VHH_(GSDMD-5) (VHH)
VHH: B8 VHH
notes: as for B3

Kd [7]: 0.55 nM
B11: VHH_(GSDMD-3) (VHH)
VHH: QVQLVETGGGLVQPGGSLRLSCAASGFTLDIYNMGWFRQAPGKEREGVSCISSRYGTSTYYADSVKGRFTISRDNAKNTVYLQMNNLKPEDTAVYYCATVSWRFTTNQDVCLTPSVSGYWGQGTQVTVSS
notes: as for B3

The next lines start with the binder.

B4: VHH_(GSDMD-1) (VHH)
VHH: QVQLVESGGALVQPGGSLRLSCSASGFTFSKYLMSWYRQAPGKERELVATITTAGGNTNYADSVKGRFTISRDNAKNTVYLQMNSLKPEDTAVYYCKASGGTIRTVNETYWGQGTQVTVSS
notes: also called VHH-1; source: E. coli WK6, periplasmic expression (pHEN6), purified (Ni-NTA, SEC S75)
Kd [1]: 0.305 nM
koff [1]: 0.00198 s⁻¹
kon [1]: 6.48e+06 M⁻¹ s⁻¹

B5: VHH_(GSDMD-1) (VHH)
VHH: B4 VHH
notes: raised by immunization of an alpaca with full-length recombinant human GSDMD; also called VHH_(GSDMD-1)-LPETG-His; source: E. coli WK6, periplasmic expression (pHEN6), purified (Ni-NTA, gel filtration); not shown: LPETG, C-terminal, kept; His tag, C-terminal, kept
IC50 of calcein release through GSDMD pores in the liposome leakage assay (nanobody 10 nM to 10 µM, 0.5 µM full length GSDMD, caspase-4, 180 min); what is blocked: formation of functional GSDMD pores [2]: 0.22 µM
Kd [7]: 0.31 nM

B6: VHH_(GSDMD-2) (VHH)
VHH: QVQLVESGGGLVQPGGSLRLSCVDSRSWINVYGANWYRQAPGKERELVAALTSGGTTNYADSVKGRFTISRDNAKNTVYLQMRDLKPEDTAVYYCNLERYTGSSVYPWGQGTQVTVSS
notes: also called VHH-2; source: E. coli WK6, periplasmic expression (pHEN6), purified (Ni-NTA, SEC S75)
Kd [1]: 0.637 nM
koff [1]: 0.000951 s⁻¹
kon [1]: 1.49e+06 M⁻¹ s⁻¹

B7: VHH_(GSDMD-2) (VHH)
VHH: B6 VHH
notes: CDR1, -2, -3 of 10, 9 and 12 residues; disulfide C22-C95; also called VHH_(GSDMD-2)-LPETG-His; source: E. coli WK6, periplasmic expression (pHEN6), purified (Ni-NTA, gel filtration); not shown: LPETG, C-terminal, kept; His tag, C-terminal, kept
IC50 of calcein release through GSDMD pores in the liposome leakage assay (nanobody 10 nM to 10 µM, 0.5 µM full length GSDMD, caspase-4, 180 min); what is blocked: formation of functional GSDMD pores [2]: 0.65 µM
stoichiometry N [3]: 1
Kd [7]: 0.64 nM

B10: VHH_(GSDMD-3) (VHH)
VHH: B11 VHH
notes: also called VHH-3; source: E. coli WK6, periplasmic expression (pHEN6), purified (Ni-NTA, SEC S75)
Kd [1]: 0.551 nM
koff [1]: 0.00154 s⁻¹
kon [1]: 2.8e+06 M⁻¹ s⁻¹
